Reference: article PMC4449784 (2015)

How the values were obtained:
Experiment in all cases: cytokine release
[1] = target: T1, HIV-1 Nef VY8 variant with Leu at P4 peptide on HLA-B*35:01 (human)
T1 peptide: VPLLPMTY

[2] = target: T2, HIV-1 Nef VY8 variant with Ala at P3 peptide on HLA-B*35:01 (human)
T2 peptide: VPARPMTY

[3] = target: T3, HIV-1 Nef VY8 variant with Phe at P3 peptide on HLA-B*35:01 (human)
T3 peptide: VPFRPMTY

[4] = target: T4, HIV-1 Nef VY8 variant with Val at P3 peptide on HLA-B*35:01 (human)
T4 peptide: VPVRPMTY

[5] = target: T5, HIV-1 Nef VY8 variant with Met at P3 peptide on HLA-B*35:01 (human)
T5 peptide: VPMRPMTY

B1: TCR-139 (A1-T/B11-J1) (TCR)
alpha AV1-1*01 AJ26*01 CDR3: CAVTDNYGQNFVF
beta BV11-2*01 BJ1-1*01 CDR3: CASSLDLVSTEAFF
binding result [1]: no recognition | binding result [2]: recognises | binding result [3]: recognises | binding result [4]: recognises | binding result [5]: recognises

B2: A1-S/B11-J1 (TCR)
alpha AV1-1*01 AJ26*01 CDR3: CAVSDNYGQNFVF
beta BV11-2*01 BJ1-1*01 CDR3: CASSLDLVSTEAFF
binding result [1]: no recognition

B3: H127 (A1-J31/B11) (TCR)
alpha AV1-1*01 AJ31*01 CDR3: CAVTSGDARLMF
beta BV11-1*01 BJ2-7*01 CDR3: CASSSDIVSYEQYF
binding result [2]: no recognition | binding result [3]: no recognition | binding result [4]: no recognition | binding result [5]: recognises
